Experimental findings from PMC12421828 are described below.

This assay concerns the target FLAG-14-3-3ε (pCAGG-FLAG 14-3-3ε of Figure 5, isoform not told). Description: co-immunoprecipitation (anti-FLAG IP), immunoblot band quantification. The following applies: BSR cells co-transfected; immunoprecipitation at 24 h post-transfection; parent: est. 0.76; read off a plot. For orientation: In western blotting, separated proteins are transferred to a membrane and probed.

For HA2B* expressed from pCAGG-HA2B* S17E, the response (Elution / Input) turned out to be 1.7. For HA2B* expressed from pCAGG-HA2B* S17D the value was 1.4; for HA2B* expressed from pCAGG-HA2B* S17A, 1.5. On to HA2B* expressed from pCAGG-HA2B* S19D, for which the response (Elution / Input) was determined as 1.9. Consider HA2B* expressed from pCAGG-HA2B* S19A, for which the response (Elution / Input) came to 1.1. Take HA2B* expressed from pCAGG-HA2B* S19E: the response (Elution / Input) came out at 0.76.
